Assay results: patent US9605266, “Cell-specific internalizing RNA aptamers against human CCR5 and uses therefore” (CITY OF HOPE)

B1: G-3-TNPO3 27-mer OVH chimera (mixed)
RNA 1: GGGAGGACGAUGCGGGCCUUCGUUUGUUUCGUCCACAGACGACUCGCCCGAUUCAAAGCCGACAUUGCAGCUCGUGUACC
RNA 2: UACACGAGCUGCAAUGUCGGCUUUG
modifications: 2'-F pyrimidines in sense strand (transcribed)
B2: G-3 aptamer (ssRNA)
RNA: GGGAGGACGAUGCGGGCCUUCGUUUGUUUCGUCCACAGACGACUCGCCCGA
modifications: 2'-F pyrimidines (2'-F-C, 2'-F-U)

Tests used:
[1] = molecular target: T1, C-C chemokine receptor type 5 (CCR5) (Homo sapiens, UniProt P51681 P51681:1-352); experiment: cell_activity; HIV-1 R5 JR-FL p24 day 3; day 5 142.6 ± 41.3, day 7 79.3 ± 21.6; siRNA also contributes; details: tags: endogenous on primary PBMC-CD4+ cells; label: Cy3 on aptamer-sense strand, Cy5 on antisense strand; aptamer with UU linker and siRNA duplex, 2-nt 3' overhang
[2] = molecular target: T1, C-C chemokine receptor type 5 (CCR5); experiment: cell_activity; HIV-1 R5 JR-FL p24 day 3; day 5 232.6 ± 38.3, day 7 170.4 ± 47.0; X4 strains IIIB and NL4-3 not inhibited; details: tags: endogenous on primary PBMC-CD4+ cells
Experimental: (§1) PBMCs were freshly isolated from healthy donors and CD8 cells were depleted as described above. After culture for 3 days in the activated T-cell culture medium containing interleukin-2, the cell-surface CCR5 level of PBMCs was detected by flow cytometry as described previously. HIV-1 protection assay was performed in 24-well tissue culture plates. Duplicate night-point dilution series of experimental RNAs were prepared and refolded in refolding buffer. PBMCs were washed once with pre-warmed PBS, and 4×10^5 PBMCs were seeded to each well of assay plates. Subsequently, experimental RNAs with different concentrations were added. Plates were incubated for 4-6 hours at 37° C. in a humidified 5% CO_2 incubator. Various viruses (R5 strains: JR-FL, Bal, MOI=0.01; or X4 strains: IIIB, NL4-3, MOI=0.001) were added into each well. After 24 hours incubation, the cells were gently washed with pre-warmed PBS to eliminate free viruses and were incubated sequentially at 37° C. in a humidified 5% CO_2 incubator.
(§2) The $IC50$ value of G-3 aptamer was indicated here. G-3 aptamers with different concentrations were incubated with primary PBMCs. After 4-6 hours incubation, various viruses (R5 strains: JR-FL, Bal; or X4 strains: IIIB, NL4-3) were added into each well. The culture supernatants were collected at different time points after infection for HIV-1 p24 antigen ELISA assay. […]

[3] = molecular target: T1, C-C chemokine receptor type 5 (CCR5); experiment: cell_activity; HIV-1 R5 JR-FL p24 day 3; day 5 58.51 ± 11.22, day 7 17.09 ± 5.90; X4 NL4-3 not converged; details: tags: endogenous on in vivo generated human CD4+ T cells
[4] = molecular target: T1, C-C chemokine receptor type 5 (CCR5); experiment: cell_activity; HIV-1 R5 BaL p24 day 3; day 5 354.3 ± 113.3, day 7 >1000; details: tags: endogenous on primary PBMC-CD4+ cells
Experimental: as §1, §2

[5] = molecular target: T1, C-C chemokine receptor type 5 (CCR5); experiment: cell_activity; HIV-1 R5 BaL p24 day 3; day 5 245.5 ± 35.76, day 7 243.2 ± 46.16; details: tags: endogenous on in vivo generated human CD4+ T cells
[6] = molecular target: T1, C-C chemokine receptor type 5 (CCR5); experiment: flow; apparent Kd, live cells, RT 30 min, DPBS with 1 mM Ca2+/1 mM Mg2+ and tRNA; R2 0.95; reduced by CCR5 siRNA knockdown; no binding to CCR5-negative U373-Magi; details: tags: U373-Magi-CCR5E cells
Experimental: Adherent cell lines (U373-Magi cells and U373-Magi-CCR5E cells) were washed with pre-warmed PBS and detached with Cell stripper. Suspension cell lines (CEM-NKr cells, CEM-NKr-CCR5 cells, and PBMCs) were washed twice with pre-warmed PBS. After counting the cells' number, the desired number of cells was resuspended in 100 µL binding buffer containing Cy3-labeled experimental RNA aptamers at different concentrations as shown. After incubation at room temperature for 30 min, cells were washed three times with 500 µL of pre-warmed binding buffer, and finally resuspended in 350 µL of DPBS for flow cytometry analysis (Flow cytometry core, City of Hope, CA). The dissociation constants were calculated using nonliner curve regression with a Graph Pad Prism 6.0.

T1 sequence (P51681 whole entry, one chain of several): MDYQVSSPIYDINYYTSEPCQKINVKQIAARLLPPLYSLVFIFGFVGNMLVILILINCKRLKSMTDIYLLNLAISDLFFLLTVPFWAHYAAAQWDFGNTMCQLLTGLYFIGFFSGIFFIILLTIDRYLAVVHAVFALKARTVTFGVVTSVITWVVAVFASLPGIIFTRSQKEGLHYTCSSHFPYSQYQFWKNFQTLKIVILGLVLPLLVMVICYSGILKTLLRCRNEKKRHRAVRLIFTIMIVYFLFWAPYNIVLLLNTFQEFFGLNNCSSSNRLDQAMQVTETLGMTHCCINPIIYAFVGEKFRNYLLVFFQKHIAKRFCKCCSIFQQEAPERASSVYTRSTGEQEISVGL

| Binder | IC50 [1] | IC50 [2] | IC50 [3] | IC50 [4] | IC50 [5] | Kd [6] |
| --- | --- | --- | --- | --- | --- | --- |
| B1 | 23.2 nM | – | – | – | – | – |
| B2 | – | 220 nM | 48 nM | 349 nM | 148 nM | 111 nM |
